Experiment: soluble on expression in E. coli; label from the status in PepcDB or PDB records

Question: Which “soluble on expression in E. coli” value does the source give for “MVLRTGRLSDFQRDMMNDHWAKFGLDYQKSPFDFVEIFGNANPVVLEIGFGMGRSLVEMAAQNPDRNYIGIEVHTPGVGACIAYAVEKQVDNLRVICHDATEILRDAVADGSLAGLQLYFPDPWQKSKHHKRRIVQTEFVMRLLTKLTAGGFIHFATDWQNYAEHMLAVLRQFSPALVNTSPTGDFIDRPAFRPLTKFEARGQRLGHAVWDLYFVKKLEHHHHHH” here?
Answer: The value was “not soluble”.

Question: For “MVLSQKLHEAFKGTVERITGPRTISAFKEKGVLSVSEFVLAGDNLVSKCPTWSWESGDASKRKPYLPSDKQFLITRNVPCLRRAASVAEDYEAAGGEVLVDDEDNDGWLATHGKPKGKEEDNLPSMDALDINEKNTIQSIPTYFGGEEDDDIPDMEEFDEADNVVENDPATLQSTYLVAHEPDDDNILRTRTYDLSITYDKYYQTPRVWLTGYDESRMLLQPELVMEDVSQDHARKTVTIEDHPHLPGKHASVHPCRHGAVMKKIIDVLMSRGVEPEVDKYLFLFLKFMASVIPTIEYDYTMDFDLGSSST”, which “soluble on expression in E. coli” value is on record?
Answer: The value was “not soluble”.

Question: Which “soluble on expression in E. coli” value does the source give for “MVNIDKIIGINNLPLANGLGEYAKRMEAVLGKNILSLVMDKRYKDMDYAGRKIYGYYPPITNGYLLNVYLSRSILKKYYKGKFPHLLSPFFYLGSEYESKSIITIHDTYYKWEKNKMQRLSKKIVRKYRSFKNIISISEQTKNDLIADGYDADNISVIYNYIDPIFRKLESINKDEKTVLTVGDGIHKNNILVNKIVNGRYYHIHIGKEVRADENYSGISTEELVKLYNRASVLIRLSDYEGFGYPPLEALFCGTPAVVSDIAVFRELLGDSAVYVKKDEVSILDGIEYAIQNRKEMLNRFESKIKSRYTKERFISNMIKYYKDL” here?
Answer: Its value is “soluble”.

Question: With “MVNLQEYQSKKLMSDNGVKVQRFFVADTANEALEAAKRLNAKEIVLKAQILAGGRGKGVFSSGLKGGVHLTKDPEVVGQLAKQMIGYNLATKQTPKEGVKVNKVMVAEALDISRETYLAILMDRSCNGPVLVGSPQGGVDIEEVAASNPELIFKEQIDIIEGIKDSQAQRMAENLGFLGPLQNQAADQIKKLYNLFLKIDATQVEVNPFGETPEGQVVCFDAKINFDDNAEFRQKDIFAMDDKSENEPIENEAAKYDLKYIGLDGNIACFVNGAGLAMATCDIIFLNGGKPANFLDLGGGVKESQVYQAFKLLTADPKVEAILVNIFGGIVNCAIIANGITKACRELELKVPLVVRLEGTNVHEAQNILTNSGLPITSAVDLEDAAKKAVASVTKK” as the sequence, how does the “soluble on expression in E. coli” value read?
Answer: The value was “soluble”.

Question: With “MVPQTGRAARATRESGRQTRDALFTAATELFLEHGEGVPITQICAAAGAHPNQVTYYYGSKERLFVEVACAAVLRAGKRAEDDAATAETVGDYTEKLVGSLLGPGAPSVELFTSAMLMTGRRSELRDLITDTLRTLHSSGEVALIRTLMRTGWQLRAGIDVESKAFWSAIFGLVIQKTATGESFGYSLEEAVAVIFANLQIPETVRNTSID” as the sequence, how does the “soluble on expression in E. coli” value read?
Answer: The value was “soluble”.

Question: With “MVQEIIVDSGDIEFLTTPKEYKQQLLSLIECARQRIFITALYLQDDEAGREILHALYQAKANFPTIEINIFVDFNRGQRGLIGEKASLGNRALYLKLAHEYPHTVNIYGVAVKRKEVFGVLHLKGMVFDEKLFYTGASINDIYLHQGERYRLDRYCTINSAALADSFCHYLSDTFIDSGLAPLLNQEWLPDAVEQKKNLIALKLQLKKSHYIVAQQQGLSQSKIVSNKALITPLVGFGRRKNQLNRATRHLVQKADDNMVLFTPYFNLPHSLAKDVIRALKRGVKTTVVVGDKTANDFFIGNDEDFSTIGIIPYVYEMLLKRFVKRYQNFIDQGLLNIHLWKDKDNSFHLKGLRVDDRYHLITGSNLNPRAWALDLENGLVVDDVNKQLLQKTDEELLGILVNTSKVSHFSDIDSVEDYPEKPQKLLKKIRVAQIDRVLKRFLLEHHHHHH” as the sequence, how does the “soluble on expression in E. coli” value read?
Answer: The value was “soluble”.

Question: Which “soluble on expression in E. coli” value does the source give for “MVQHQMFDPGVADLLDTDILTSPSKRKRKLKIDDISTSDRSELEDYIVLENVYRMFGITFFPLVDPIDLKIKDASGEIFVDREMLGIRLEVFSERTSQFEKPHYVLLKKRIKSNSWFLFKHTIPSFIDVQGIFDDTNGGLVISHDDAYLFAKRVFLQLVEVQKRRQIFKDLEAKKIIHDLDLDLESSMVSFFVKDIKVELFVKQNEIVSCSILDDIHDFSQNNKSKWEIALLGSLDDLELKLNHSFATIFK” here?
Answer: Its value is “not soluble”.

Question: For “MVREDRSTWKANYFTKLVELFEEYPKCLLVGVDNVGSKQMQEIRQAMRGHAEILMGKNTMIRKALRGHLGKNPSLEKLLPHIVENVGFVFTKEDLGEIRSKLLENRKGAPAKAGAIAPCDVKLPPQNTGMGPEKTSFFQALQIPTKIARGTIEILNDVHLIKEGDKVGASESALLNMLGVTPFSYGLVVRQVYDDGTLYTPEVLDMTTEELRKRFLSGVRNVASVSLAVNYPTLASVAHSLANGLQNMLGVAAVTDVSFKEAETIKAFIADPSKFAAAAPAAAAAPAAAAPAAKKEEPKEESDDDMGFGLFD”, which “soluble on expression in E. coli” value is on record?
Answer: The value was “not soluble”.

Question: With “MVRTAPDPAMVQRSHQKPSLVMTTHSMLIPMVDTLLELPARTLTDGTSTPKHQQLREILEELCRTQLKPGDMLPGERALEEQYGVSRITVRRAIGDLVATGQLRRSRGKGTFVAQAPMITRLQLASFSDEMAARKIEASSKILASSWSSPSAVVHEFFGTEQGTPHTHLVRVRLGGGKPFCINDAWYNSAIAPDLLENDVYKSVYSILEQNYGASITGAEQITTAVAATPETARILGVDVGEPLLKVERHAHAGENPIEWCSSLYRTDRFALRTFITK” as the sequence, how does the “soluble on expression in E. coli” value read?
Answer: Its value is “not soluble”.

Question: With “MVSEAEFMAALAKFAETSATASAAADRVIAVANVDASRIADEFNALLGWAMKIATLLLEEISKNPSLKAEMAESHQMLFGNLGTIVPALLKFGPYINQILGNFGLSLGKLFGIVLAF” as the sequence, how does the “soluble on expression in E. coli” value read?
Answer: Its value is “not soluble”.

Question: Which “soluble on expression in E. coli” value does the source give for “MVSEEEEEEDGDAEETQDSEDDEEDEMEEDDDDSDYPEEMEDDDDDASYCTESSFRSHSTYSSTPGRRKPRVHRPRSPILEEKDIPPLEFPKSSEDLMVPNEHIMNVIAIYEVLRNFGTVLRLSPFRFEDFCAALVSQEQCTLMAEMHVVLLKAVLREEDTSNTTFGPADLKDSVNSTLYFIDGMTWPEVLRVYCESDKEYHHVLPYQEAEDYPYGPVENKIKVLQFLVDQFLTTNIAREELMSEGVIQYDDHCRVCHKLGDLLCCETCSAVYHLECVKPPLEEVPEDEWQCEVCVAHKVPGVTDCVAEIQKNKPYIRHEPIGYDRSRRKYWFLNRRLIIEEDTENENEKKIWYYSTKVQLAELIDCLDKDYWEAELCKILEEMREEIHRHMDITEDLTNKARGSNKSFLAAANEEILESIRAKKGDIDNVKSPEETEKDKNETENDSKDAEKNREEFEDQSLEKDSDDKTPDDDPEQGKSEEPTEVGDKGNSVSANLGDNTTNATSEETSPSEGRSPVGCLSETPDSSNMAEKKVASELPQDVPVGDFKSEKSNGELSESPGAGKGASGSTRIITRLRNPDSKLSQLKSQQVAAAAHEANKLFKEGKEVLVVNSQGEISRLSTKKEVIMKGNINNYFKLGQEGKYRVYHNQYSTNSFALNKHQHREDHDKRRHLAHKFCLTPAGEFKWNGSVHGSKVLTISTLRLTITQLENNIPSSFLHPNWASHRANWIKAVQMCSKPREFALALAILECAVKPVVMLPIWRESLGHTRLHRMTSIEREEKEKVKKKKKK” here?
Answer: Its value is “soluble”.

Question: Which “soluble on expression in E. coli” value does the source give for “MVSTESEIAVRIRGIYSTALTKLLMDRGFKIVQPSDVIAERFGIEKSYEDFDVDIYDKNHGVTIVGTKVEAVKKVFEEEFIDVFFRKLPYKLHGIYKGLVVKRDDRFVYVDIGNVIGTVLIEELPDAAEGDEVVVQVKKHNVLPHLSTLITIPGDYAVLIPKPIGVQRHVKISRKIKDPEERERLRILGLSVDLGEWGVLWRTAAAYKDWNTLRDELVRLSKIADKLKEAEKFSAPAEIIEGREIYEIEFGGGVKKKLDEIRNEVVPTIEGHHQFKSYDPEFTLAVDVAEGILAKLPSQRQKISKGFLEAIITSKGPKVGWIFTLNHVKPDGQIIKIGPGEVIEVSTDPLKVTIKRYLRPGKFYDGLEVPIESGDYAITEIEAGKWWFVHRYYDKDGNLKGEFYNINTPVEIYPDKARYVDLEVDIVRWPDGKKEIIDKEKLKEHYEEGIISEKLYKATLRIAQEVYDRLLEHHHHHH” here?
Answer: Its value is “not soluble”.

Question: Which “soluble on expression in E. coli” value does the source give for “MVSVDPLATERWRSIRRLTDRDSAYKVPWFVPGPENFEALQNTKILVIGAGGLGCELLKNLALSGFRTIEVIDMDTIDVSNLNRQFLFRESDVGKSKAEVAAAFVQQRVVGCQVTAHNCRIEDKGQEFYRKFSIIICGLDSIPARRWINGMLCDLVLEMADGKPDENTIIPMIDGGTEGFKGNARVIYPKFTACIDCTLDLYPPQVNFPLCTIAHTPRLPEHCIEYIKVVVWPEEKPFEGVSLDADDPIHVEWVLERASLRAEKYNIRGVDRRLTSGVLKRIIPAVASTNAVIAASCALEALKLATNIAKPIDNYLNFTQIHGAYTSVVSMMKDDNCLTCSGGRLPFEVSPSSTLESLIIRLSERFHLKHPTLATSTRKLYCISSFMPQFEQESKENLHTSMKDLVSDGEEILVSDEALSRALTLRIQLI” here?
Answer: Its value is “not soluble”.

Question: For “MVTAEIRLYITEGEVEDYRVFLERLEQSGLEWRPATPEDADAVIVLAGLWGTRRDEILGAVDLARKSSKPIITVRPYGLENVPPELEAVSSEVVGWNPHCIRDALEDALDVI”, which “soluble on expression in E. coli” value is on record?
Answer: Its value is “not soluble”.

Question: With “MVTFKLNDEFMFGTATASTQIEGGDTGNTWYKWCQEGRIKDSSSCITACDHWNRVEEDTELLKNLGVQTHRMSLEWSRIEPSRGKFSDDAMKHYRDEIKLLVENNIKPLVTLHHFSEPIWFHEMGGWKKTGNADIFIEYVKYVVENLGDLVSDWVTFNEPNVYVDFGYVIGIFPPGERSLSEGLKVTAELINTHVKLYRLIHRIRRERKFAGRTMVGTAMHLRIFDGISSTGKMIAKVVDYLFNEMFMEGMTTGHMMFPLSKKGSSHKKGRYADFLGINYYTRNIVEFVFDPSLYFHELVCDKDLTKSDLGWDIYPEGIYKVCKRYYKKYKLPIYITENGISDKNDTKRPSFIASHLAYIAKAIKEGIPIERYYYWTLMDNFEWLEGESTDFGLYDCNFRTQERIPRKSVRLYEQICRRKELTAEMIEDFKKYSGITIETIR” as the sequence, how does the “soluble on expression in E. coli” value read?
Answer: The value was “soluble”.

Question: For “MVTFNCEVCNDTVPKKNTEKHYYRCPNAYYTCIDCSKTFEDGVSYKNHTSCISEDEKYQKALYKGNKKQKQKQQQKQQQKQHQHQPVATPAKKVEKPVIKKAEKVEKTSNGIELHKGKSLYKILKTMKDKGAKKTFLKSLVVDSEGQIRYAKE”, which “soluble on expression in E. coli” value is on record?
Answer: Its value is “soluble”.

Question: Which “soluble on expression in E. coli” value does the source give for “MVTILDRTSSDEKRIRHPEKAHRPDTEVMRKPEWIRVKAPTSKGYHETRELVRSHKLVTVCEEAGCPNIGECWEKKHATFMIMGEICTRACAFCNVATGKPNALDMDEPENVAKAVKQMGLSHVVITSVDRDDLADGGAEHFEKVIWAIRAASPTTTIEILTPDFLKKPGALERVVAAKPDVFNHNMETVPGNYLTVRPGARYFHSVRLLQRVKELDPTMFTKSGIMVGLGEERNEVLQLMDDLRSADVDFLTIGQYLQPTRKHHKVEAFVTPEEFKSYETVAYAKGFLMVSSSPLTRSSHHAGDDFERLRAAREKKLLAAAE” here?
Answer: The value was “not soluble”.

Question: Which “soluble on expression in E. coli” value does the source give for “MVTKTEEIQLNQLENQVENGGGGVWEYLCLVRKLKVRRSEIVLKHGLSILNDSGKRSALGPDEWTLYEQVAIAAMDCQSLGVAQNCIKVLKKKFPESKRVGKLEALLLEAKGMWEEAEKAYTSLLEDNPLDQVIHKRKVAMAKAQGKSSLAIEHLNKYLEVFMADHDAWRELAEIYVSLQMYKQAAFCYEELILTQPTLPLYHLAYADVLYTIGGLENLIAARKYYAATIDLTGGKSTRALLGICLCGSAIAQISKGRNKEDKDMAAPELQSLAATALEREYKQKAPAKLNLLTSALRNLKIA” here?
Answer: The value was “not soluble”.

Question: With “MVTLEELKAVFKPKLKPIIWREDSLDLLDQSALPFQTTYITVKTPEEVAKAIKLMQVRGAPAIGITAGYGMVLALISTKPNTLNEAIEELVKAKQIMDQARPTAVNLSWATSRMLNFAKKKIEEGEAKSVSELIQLMKEEANRIYEEELEAELKIGMYGLEKISDGDTILTQCNAGGLATGTGLGTALAPVKLAHYLGMKVSVIAPETRPWLQGSRLTVYELMAEGIQVTLITDTAVGLVIYKNMVNSVMVGADRILKDGHVFNKIGTFKEAVISHELGIPFYALAPSSSFDLKSKVDEIKIEERDPNEVRTIRGIPIVPENVKVYNPVFDVTPPKYITALITEKGVIYPPFEKNIPKIIGL” as the sequence, how does the “soluble on expression in E. coli” value read?
Answer: Its value is “soluble”.
